The text below walks through data of PMC9122207, “PTEN differentially regulates endocytosis, migration, and proliferation in the enteric protozoan parasite Entamoeba histolytica” (PLoS Pathogens, 2022).

Holding throughout (assay): malachite green phosphate release, Lineweaver-Burk
What all share (format): biochemical, Entamoeba histolytica
Details in all cases: 100 mM MOPS pH 6.0, 37°C, 40 min, di-C8 lipid

For data set [1], the system named is CCCCCCCC(=O)OC[C@H](COP(=O)(O)O[C@@H]1[C@H](O)[C@H](OP(=O)(O)O)[C@@H](O)[C@H](OP(=O)(O)O)[C@H]1O)OC(=O)CCCCCCC. An excerpt:
(§1) malachite green phosphate release, Lineweaver-Burk on EhPTEN1

The test system of data set [2] is CCCCCCCC(=O)OC[C@H](COP(=O)(O)O[C@H]1[C@H](O)[C@@H](O)[C@H](OP(=O)(O)O)[C@@H](OP(=O)(O)O)[C@H]1O)OC(=O)CCCCCCC.
Source text: as §1

Data set [3] concerns CCCCCCCC(=O)OC[C@H](COP(=O)(O)O[C@H]1[C@H](O)[C@@H](OP(=O)(O)O)[C@H](OP(=O)(O)O)[C@@H](OP(=O)(O)O)[C@H]1O)OC(=O)CCCCCCC.
Source text: as §1

With “EhPTEN1 (Entamoeba histolytica HM-1:IMSS)”, in data set [1], the Km is 161 ± 20.1 µM, the maximum rate (Vmax) was determined as 0.0084 µmol/min/mg and the kcat was 0.0025 ± 0.000167 s⁻¹. Further, in data set [2], the Km came out at 292 ± 18.8 µM, the Vmax worked out at 0.00602 µmol/min/mg and the catalytic constant (kcat) worked out at 0.00183 ± 0.000333 s⁻¹. In addition, in data set [3], the Km came to 92.5 ± 4.72 µM, the Vmax came out at 0.0169 µmol/min/mg and the kcat was found to be 0.00517 ± 0.0005 s⁻¹.

A word on the Km: it is the substrate concentration at which the rate is half of its maximum. The term Vmax denotes the top rate of the reaction or transport when substrate is in excess. In general, kcat refers to the number of substrate molecules converted per active site and unit of time at saturation.
